Results reported in patent US20140087995A1 (published 2014).
Numbered stars: 1 amine (or outer) side, 2 acyl side, 3 side chain; on linkers, the order of the positions; unused ones are H or OH. Bridge positions count the residues as written; N and C are the ends. Side chains are listed from the residue outwards. Ends that are not written are not given here. * marks the point of attachment. C20 diacid = O=C(O)CCCCCCCCCCCCCCCCCCC(=O)*; γGlu = O=C(O)[C@H](CCC(=O)[*:2])N[*:1]; AEEA = NCCOCCOCC(=O)O

B1: N^ε1-[2-[2-[2-[[(4S)-4-carboxy-4-(19-carboxynonadecanoylamino)butanoyl]amino]ethoxy]ethoxy]acetyl]-[Ser14,Arg17,Pro21,Pro27,Pro31]-h-amylin (peptide)
peptide: K([AEEA-γGlu-C20 diacid])CNTATCATQRLASFLRHSSPNFGAIPSSTPVGSNTY-NH2
modifications: disulfide 2-7; N-terminus assumed
SMILES: CC[C@H](C)[C@H](NC(=O)[C@H](C)NC(=O)CNC(=O)[C@H](Cc1ccccc1)NC(=O)[C@H](CC(N)=O)NC(=O)[C@@H]1CCCN1C(=O)[C@H](CO)NC(=O)[C@H](CO)NC(=O)[C@H](Cc1c[nH]cn1)NC(=O)[C@H](CCCNC(=N)N)NC(=O)[C@H](CC(C)C)NC(=O)[C@H](Cc1ccccc1)NC(=O)[C@H](CO)NC(=O)[C@H](C)NC(=O)[C@H](CC(C)C)NC(=O)[C@H](CCCNC(=N)N)NC(=O)[C@H](CCC(N)=O)NC(=O)[C@@H](NC(=O)[C@H](C)NC(=O)[C@@H]1CSSC[C@H](NC(=O)[C@@H](N)CCCCNC(=O)COCCOCCNC(=O)CC[C@H](NC(=O)CCCCCCCCCCCCCCCCCCC(=O)O)C(=O)O)C(=O)N[C@@H](CC(N)=O)C(=O)N[C@@H]([C@@H](C)O)C(=O)N[C@@H](C)C(=O)N[C@@H]([C@@H](C)O)C(=O)N1)[C@@H](C)O)C(=O)N1CCC[C@H]1C(=O)N[C@@H](CO)C(=O)N[C@@H](CO)C(=O)N[C@H](C(=O)N1CCC[C@H]1C(=O)N[C@H](C(=O)NCC(=O)N[C@@H](CO)C(=O)N[C@@H](CC(N)=O)C(=O)N[C@H](C(=O)N[C@@H](Cc1ccc(O)cc1)C(N)=O)[C@@H](C)O)C(C)C)[C@@H](C)O
notes: Analogue of human amylin; also called compound 73
B2: N^ε1-[(4S)-4-carboxy-4-(19-carboxynonadecanoylamino)butanoyl]-[Arg14,Arg17,Pro21,Pro27,Pro34]-h-amylin (peptide)
peptide: K([γGlu-C20 diacid])CNTATCATQRLARFLRHSSPNFGAIPSSTNVGPNTY-NH2
modifications: disulfide 2-7; N-terminus assumed
SMILES: CC[C@H](C)[C@H](NC(=O)[C@H](C)NC(=O)CNC(=O)[C@H](Cc1ccccc1)NC(=O)[C@H](CC(N)=O)NC(=O)[C@@H]1CCCN1C(=O)[C@H](CO)NC(=O)[C@H](CO)NC(=O)[C@H](Cc1c[nH]cn1)NC(=O)[C@H](CCCNC(=N)N)NC(=O)[C@H](CC(C)C)NC(=O)[C@H](Cc1ccccc1)NC(=O)[C@H](CCCNC(=N)N)NC(=O)[C@H](C)NC(=O)[C@H](CC(C)C)NC(=O)[C@H](CCCNC(=N)N)NC(=O)[C@H](CCC(N)=O)NC(=O)[C@@H](NC(=O)[C@H](C)NC(=O)[C@@H]1CSSC[C@H](NC(=O)[C@@H](N)CCCCNC(=O)CC[C@H](NC(=O)CCCCCCCCCCCCCCCCCCC(=O)O)C(=O)O)C(=O)N[C@@H](CC(N)=O)C(=O)N[C@@H]([C@@H](C)O)C(=O)N[C@@H](C)C(=O)N[C@@H]([C@@H](C)O)C(=O)N1)[C@@H](C)O)C(=O)N1CCC[C@H]1C(=O)N[C@@H](CO)C(=O)N[C@@H](CO)C(=O)N[C@H](C(=O)N[C@@H](CC(N)=O)C(=O)N[C@H](C(=O)NCC(=O)N1CCC[C@H]1C(=O)N[C@@H](CC(N)=O)C(=O)N[C@H](C(=O)N[C@@H](Cc1ccc(O)cc1)C(N)=O)[C@@H](C)O)C(C)C)[C@@H](C)O
notes: Analogue of human amylin; also called compound 65
B3: N^ε1-[2-[2-[2-[[(4S)-4-carboxy-4-(19-carboxynonadecanoylamino)butanoyl]amino]ethoxy]ethoxy]acetyl]-[Thr14,Arg17,Pro21,Pro27,Pro31]-h-amylin (peptide)
peptide: K([AEEA-γGlu-C20 diacid])CNTATCATQRLATFLRHSSPNFGAIPSSTPVGSNTY-NH2
modifications: disulfide 2-7; N-terminus assumed
SMILES: CC[C@H](C)[C@H](NC(=O)[C@H](C)NC(=O)CNC(=O)[C@H](Cc1ccccc1)NC(=O)[C@H](CC(N)=O)NC(=O)[C@@H]1CCCN1C(=O)[C@H](CO)NC(=O)[C@H](CO)NC(=O)[C@H](Cc1c[nH]cn1)NC(=O)[C@H](CCCNC(=N)N)NC(=O)[C@H](CC(C)C)NC(=O)[C@H](Cc1ccccc1)NC(=O)[C@@H](NC(=O)[C@H](C)NC(=O)[C@H](CC(C)C)NC(=O)[C@H](CCCNC(=N)N)NC(=O)[C@H](CCC(N)=O)NC(=O)[C@@H](NC(=O)[C@H](C)NC(=O)[C@@H]1CSSC[C@H](NC(=O)[C@@H](N)CCCCNC(=O)COCCOCCNC(=O)CC[C@H](NC(=O)CCCCCCCCCCCCCCCCCCC(=O)O)C(=O)O)C(=O)N[C@@H](CC(N)=O)C(=O)N[C@@H]([C@@H](C)O)C(=O)N[C@@H](C)C(=O)N[C@@H]([C@@H](C)O)C(=O)N1)[C@@H](C)O)[C@@H](C)O)C(=O)N1CCC[C@H]1C(=O)N[C@@H](CO)C(=O)N[C@@H](CO)C(=O)N[C@H](C(=O)N1CCC[C@H]1C(=O)N[C@H](C(=O)NCC(=O)N[C@@H](CO)C(=O)N[C@@H](CC(N)=O)C(=O)N[C@H](C(=O)N[C@@H](Cc1ccc(O)cc1)C(N)=O)[C@@H](C)O)C(C)C)[C@@H](C)O
notes: Analogue of human amylin; also called compound 75
B4: N^ε1-[(4S)-4-carboxy-4-(19-carboxynonadecanoylamino)butanoyl]-[Arg14,Arg17,Pro21,Pro27,Pro31]-h-amylin (peptide)
peptide: K([γGlu-C20 diacid])CNTATCATQRLARFLRHSSPNFGAIPSSTPVGSNTY-NH2
modifications: disulfide 2-7; N-terminus assumed
SMILES: CC[C@H](C)[C@H](NC(=O)[C@H](C)NC(=O)CNC(=O)[C@H](Cc1ccccc1)NC(=O)[C@H](CC(N)=O)NC(=O)[C@@H]1CCCN1C(=O)[C@H](CO)NC(=O)[C@H](CO)NC(=O)[C@H](Cc1c[nH]cn1)NC(=O)[C@H](CCCNC(=N)N)NC(=O)[C@H](CC(C)C)NC(=O)[C@H](Cc1ccccc1)NC(=O)[C@H](CCCNC(=N)N)NC(=O)[C@H](C)NC(=O)[C@H](CC(C)C)NC(=O)[C@H](CCCNC(=N)N)NC(=O)[C@H](CCC(N)=O)NC(=O)[C@@H](NC(=O)[C@H](C)NC(=O)[C@@H]1CSSC[C@H](NC(=O)[C@@H](N)CCCCNC(=O)CC[C@H](NC(=O)CCCCCCCCCCCCCCCCCCC(=O)O)C(=O)O)C(=O)N[C@@H](CC(N)=O)C(=O)N[C@@H]([C@@H](C)O)C(=O)N[C@@H](C)C(=O)N[C@@H]([C@@H](C)O)C(=O)N1)[C@@H](C)O)C(=O)N1CCC[C@H]1C(=O)N[C@@H](CO)C(=O)N[C@@H](CO)C(=O)N[C@H](C(=O)N1CCC[C@H]1C(=O)N[C@H](C(=O)NCC(=O)N[C@@H](CO)C(=O)N[C@@H](CC(N)=O)C(=O)N[C@H](C(=O)N[C@@H](Cc1ccc(O)cc1)C(N)=O)[C@@H](C)O)C(C)C)[C@@H](C)O
notes: Analogue of human amylin; also called compound 63

Assays:
[1] = target: T1, human calcitonin receptor (human, UniProt P30988 25-474); experiment: IC50 on human CTR divided by IC50 on human amylin receptor (Assays VII/V)
T1 construct: whole, on cells; Used as membranes prepared from a BHK tk'ts 13 cell line stably transfected with the human calcitonin receptor (Assay VII); also called hCTR; hCT
T1 sequence (looked up): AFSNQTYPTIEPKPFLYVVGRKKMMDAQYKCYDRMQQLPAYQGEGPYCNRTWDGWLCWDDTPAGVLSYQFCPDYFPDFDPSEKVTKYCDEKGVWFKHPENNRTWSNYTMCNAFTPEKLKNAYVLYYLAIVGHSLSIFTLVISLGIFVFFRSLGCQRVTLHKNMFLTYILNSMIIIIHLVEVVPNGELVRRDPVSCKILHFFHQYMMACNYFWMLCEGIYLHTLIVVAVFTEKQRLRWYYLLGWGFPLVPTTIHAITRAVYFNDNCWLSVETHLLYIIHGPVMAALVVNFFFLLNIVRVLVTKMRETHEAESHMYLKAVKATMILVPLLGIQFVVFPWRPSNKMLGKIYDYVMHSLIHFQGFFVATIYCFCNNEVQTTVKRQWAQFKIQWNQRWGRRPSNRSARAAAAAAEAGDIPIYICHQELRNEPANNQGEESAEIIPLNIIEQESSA
How it was run: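 Competition binding by SPA with cell membranes (35 ng/μL) and SPA beads in 50 mM Hepes pH 7.4 with 1 mM CaCl2, 5 mM MgCl2, 0.1% OA and 0.02% Tween20. Incubated 120 min at 25 °C with shaking, then counted.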

rat calcitonin receptor [2] = target: T2, rat calcitonin receptor (rat, UniProt P32214 25-516); experiment: IC50 on rat CTR divided by IC50 on rat amylin receptor (Assays VIII/VI)
T2 construct: whole, on cells; Used as membranes prepared from BHK tk'ts 13 cells transiently transfected with the rat calcitonin receptor (Assay VIII); also called rCTR; rat calcitonin (a) receptor
T2 sequence (looked up): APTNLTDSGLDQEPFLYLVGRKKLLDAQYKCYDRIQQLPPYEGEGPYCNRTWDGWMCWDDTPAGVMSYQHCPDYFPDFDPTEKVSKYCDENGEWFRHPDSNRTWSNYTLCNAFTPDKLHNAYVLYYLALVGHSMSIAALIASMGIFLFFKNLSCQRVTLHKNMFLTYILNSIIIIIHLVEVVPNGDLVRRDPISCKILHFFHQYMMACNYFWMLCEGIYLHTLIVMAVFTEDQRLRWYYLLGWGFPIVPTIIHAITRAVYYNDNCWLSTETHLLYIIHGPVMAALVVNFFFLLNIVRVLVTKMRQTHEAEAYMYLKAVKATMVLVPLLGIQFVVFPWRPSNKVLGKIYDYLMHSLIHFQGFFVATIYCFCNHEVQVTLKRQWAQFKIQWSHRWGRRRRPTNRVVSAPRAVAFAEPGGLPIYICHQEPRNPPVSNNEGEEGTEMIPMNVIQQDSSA

[3] = target: T3, rat amylin receptor (rat calcitonin receptor + rat RAMP 3) (rat, UniProt P32214 25-516; Q9JJ73 23-147); experiment: SPA competition with 125I-rat amylin, membranes of BHK cells with rat CTR + rat RAMP3 (Assay VI)
T3 construct: whole, on cells; Used as membranes prepared from BHK tk'ts 13 cells transiently transfected with rat calcitonin receptor and rat RAMP 3 (Assay VI); also called rAmylin-R; rat amylin 3(a) receptor
T3 sequence (looked up) 1: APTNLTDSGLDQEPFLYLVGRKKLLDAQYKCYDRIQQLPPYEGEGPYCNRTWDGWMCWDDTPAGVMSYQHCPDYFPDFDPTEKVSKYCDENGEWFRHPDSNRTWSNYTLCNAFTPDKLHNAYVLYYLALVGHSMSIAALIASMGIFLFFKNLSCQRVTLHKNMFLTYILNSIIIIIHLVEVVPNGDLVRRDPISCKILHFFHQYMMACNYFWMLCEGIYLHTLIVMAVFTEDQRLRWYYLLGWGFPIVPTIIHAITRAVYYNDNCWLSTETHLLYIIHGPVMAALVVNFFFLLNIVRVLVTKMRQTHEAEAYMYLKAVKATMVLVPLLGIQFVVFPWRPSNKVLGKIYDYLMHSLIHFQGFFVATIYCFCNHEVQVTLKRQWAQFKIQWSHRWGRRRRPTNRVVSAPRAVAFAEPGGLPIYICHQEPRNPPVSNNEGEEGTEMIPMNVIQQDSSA
T3 sequence (looked up) 2: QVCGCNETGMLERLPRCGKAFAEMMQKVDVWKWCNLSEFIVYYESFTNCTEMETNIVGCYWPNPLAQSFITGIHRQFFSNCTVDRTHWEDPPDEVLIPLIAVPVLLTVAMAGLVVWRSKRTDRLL

rat calcitonin receptor [4] = target: T2, rat calcitonin receptor; experiment: SPA competition with 125I-calcitonin, membranes of BHK cells with rat CTR (Assay VIII)

Ratio hCT/hAmylin binding [1] | Ratio rCT/rAmylin binding (rat calcitonin receptor [2]) | IC50 [3] | IC50 (rat calcitonin receptor [4]) | Binder
51.7 | 178 | 0.283 nM | 50.3 nM | B1
82.4 | 93.2 | 1.16 nM | 108 nM | B2
91.4 | 110 | 4.03 nM | 442 nM | B3
157 | 35.6 | 3.48 nM | 124 nM | B4
